Laboratory results taken from patent US20230103631A1, “PEPTIDES AS SELECTIVE GIP RECEPTOR AGONISTS” (Sanofi, priority 2020, published 2023).
*1 amine or outer side, *2 acyl side, *3 side chain or, on linkers, in order; H or OH if unused. Where no end group is shown, it is not given here. Side-chain parts run from the residue outwards. [ ]: non-standard residue; d: D form. The star is where a group is joined. C20 diacid = O=C(O)CCCCCCCCCCCCCCCCCCC(=O)*; C18 diacid = O=C(O)CCCCCCCCCCCCCCCCC(=O)*; γGlu = O=C(O)[C@H](CCC(=O)[*:2])N[*:1]; NMeY = CN[C@@H](Cc1ccc(O)cc1)C(=O)O; AEEA = NCCOCCOCC(=O)O; Aib = CC(C)(N)C(=O)O

T1: human GIP receptor (human, UniProt P48546 22-466)
T1 sequence (looked up): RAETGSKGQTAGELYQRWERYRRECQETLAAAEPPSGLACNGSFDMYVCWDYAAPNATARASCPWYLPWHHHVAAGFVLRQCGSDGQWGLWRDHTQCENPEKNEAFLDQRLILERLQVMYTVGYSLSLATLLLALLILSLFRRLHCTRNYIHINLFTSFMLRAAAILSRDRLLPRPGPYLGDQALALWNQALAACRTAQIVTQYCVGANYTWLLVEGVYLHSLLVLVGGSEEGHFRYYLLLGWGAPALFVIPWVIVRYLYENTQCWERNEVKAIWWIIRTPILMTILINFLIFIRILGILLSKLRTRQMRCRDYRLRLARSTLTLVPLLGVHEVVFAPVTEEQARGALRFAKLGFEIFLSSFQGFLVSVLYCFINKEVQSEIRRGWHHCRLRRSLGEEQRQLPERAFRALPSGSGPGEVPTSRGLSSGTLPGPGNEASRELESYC

B1: SEQ ID NO: 15 (peptide)
peptide: Y[Aib]EGTFISDLSI[Aib]K([AEEA-AEEA-γGlu-γGlu-C20 diacid])DRIHQEEFIEWLLAQGPSSGAPPPS-NH2
modifications: N-terminus assumed
SMILES: CC[C@H](C)[C@H](NC(=O)[C@H](Cc1ccccc1)NC(=O)[C@H](CCC(=O)O)NC(=O)[C@H](CCC(=O)O)NC(=O)[C@H](CCC(N)=O)NC(=O)[C@H](Cc1c[nH]cn1)NC(=O)[C@@H](NC(=O)[C@H](CCCNC(=N)N)NC(=O)[C@H](CC(=O)O)NC(=O)[C@H](CCCCNC(=O)COCCOCCNC(=O)COCCOCCNC(=O)CC[C@H](NC(=O)CC[C@H](NC(=O)CCCCCCCCCCCCCCCCCCC(=O)O)C(=O)O)C(=O)O)NC(=O)C(C)(C)NC(=O)[C@@H](NC(=O)[C@H](CO)NC(=O)[C@H](CC(C)C)NC(=O)[C@H](CC(=O)O)NC(=O)[C@H](CO)NC(=O)[C@@H](NC(=O)[C@H](Cc1ccccc1)NC(=O)[C@@H](NC(=O)CNC(=O)[C@H](CCC(=O)O)NC(=O)C(C)(C)NC(=O)[C@@H](N)Cc1ccc(O)cc1)[C@@H](C)O)[C@@H](C)CC)[C@@H](C)CC)[C@@H](C)CC)C(=O)N[C@@H](CCC(=O)O)C(=O)N[C@@H](Cc1c[nH]c2ccccc12)C(=O)N[C@@H](CC(C)C)C(=O)N[C@@H](CC(C)C)C(=O)N[C@@H](C)C(=O)N[C@@H](CCC(N)=O)C(=O)NCC(=O)N1CCC[C@H]1C(=O)N[C@@H](CO)C(=O)N[C@@H](CO)C(=O)NCC(=O)N[C@@H](C)C(=O)N1CCC[C@H]1C(=O)N1CCC[C@H]1C(=O)N1CCC[C@H]1C(=O)N[C@@H](CO)C(N)=O
B2: SEQ ID NO: 16 (peptide)
peptide: Y[Aib]EGTFISDLSI[Aib]K([Gly-Gly-Gly-γGlu-C18 diacid])DRIHQEEFIEWLLAQGPSSGAPPPS-NH2
modifications: N-terminus assumed
SMILES: CC[C@H](C)[C@H](NC(=O)[C@H](Cc1ccccc1)NC(=O)[C@H](CCC(=O)O)NC(=O)[C@H](CCC(=O)O)NC(=O)[C@H](CCC(N)=O)NC(=O)[C@H](Cc1c[nH]cn1)NC(=O)[C@@H](NC(=O)[C@H](CCCNC(=N)N)NC(=O)[C@H](CC(=O)O)NC(=O)[C@H](CCCCNC(=O)CNC(=O)CNC(=O)CNC(=O)CC[C@H](NC(=O)CCCCCCCCCCCCCCCCC(=O)O)C(=O)O)NC(=O)C(C)(C)NC(=O)[C@@H](NC(=O)[C@H](CO)NC(=O)[C@H](CC(C)C)NC(=O)[C@H](CC(=O)O)NC(=O)[C@H](CO)NC(=O)[C@@H](NC(=O)[C@H](Cc1ccccc1)NC(=O)[C@@H](NC(=O)CNC(=O)[C@H](CCC(=O)O)NC(=O)C(C)(C)NC(=O)[C@@H](N)Cc1ccc(O)cc1)[C@@H](C)O)[C@@H](C)CC)[C@@H](C)CC)[C@@H](C)CC)C(=O)N[C@@H](CCC(=O)O)C(=O)N[C@@H](Cc1c[nH]c2ccccc12)C(=O)N[C@@H](CC(C)C)C(=O)N[C@@H](CC(C)C)C(=O)N[C@@H](C)C(=O)N[C@@H](CCC(N)=O)C(=O)NCC(=O)N1CCC[C@H]1C(=O)N[C@@H](CO)C(=O)N[C@@H](CO)C(=O)NCC(=O)N[C@@H](C)C(=O)N1CCC[C@H]1C(=O)N1CCC[C@H]1C(=O)N1CCC[C@H]1C(=O)N[C@@H](CO)C(N)=O
B3: SEQ ID NO: 13 (peptide)
peptide: [NMeY][Aib]EGTFISDLSI[Aib]K([AEEA-AEEA-γGlu-C18 diacid])DRIHQEEFIEWLLAQGPSSGAPPPS-NH2
modifications: N-terminus assumed
SMILES: CC[C@H](C)[C@H](NC(=O)[C@H](Cc1ccccc1)NC(=O)[C@H](CCC(=O)O)NC(=O)[C@H](CCC(=O)O)NC(=O)[C@H](CCC(N)=O)NC(=O)[C@H](Cc1c[nH]cn1)NC(=O)[C@@H](NC(=O)[C@H](CCCNC(=N)N)NC(=O)[C@H](CC(=O)O)NC(=O)[C@H](CCCCNC(=O)COCCOCCNC(=O)COCCOCCNC(=O)CC[C@H](NC(=O)CCCCCCCCCCCCCCCCC(=O)O)C(=O)O)NC(=O)C(C)(C)NC(=O)[C@@H](NC(=O)[C@H](CO)NC(=O)[C@H](CC(C)C)NC(=O)[C@H](CC(=O)O)NC(=O)[C@H](CO)NC(=O)[C@@H](NC(=O)[C@H](Cc1ccccc1)NC(=O)[C@@H](NC(=O)CNC(=O)[C@H](CCC(=O)O)NC(=O)C(C)(C)NC(=O)[C@H](Cc1ccc(O)cc1)NC)[C@@H](C)O)[C@@H](C)CC)[C@@H](C)CC)[C@@H](C)CC)C(=O)N[C@@H](CCC(=O)O)C(=O)N[C@@H](Cc1c[nH]c2ccccc12)C(=O)N[C@@H](CC(C)C)C(=O)N[C@@H](CC(C)C)C(=O)N[C@@H](C)C(=O)N[C@@H](CCC(N)=O)C(=O)NCC(=O)N1CCC[C@H]1C(=O)N[C@@H](CO)C(=O)N[C@@H](CO)C(=O)NCC(=O)N[C@@H](C)C(=O)N1CCC[C@H]1C(=O)N1CCC[C@H]1C(=O)N1CCC[C@H]1C(=O)N[C@@H](CO)C(N)=O
B4: SEQ ID NO: 12 (peptide)
peptide: Y[Aib]EGTFISDLSI[Aib]K([AEEA-AEEA-AEEA-γGlu-C18 diacid])DRIHQEEFIEWLLAQGPSSGAPPPS-NH2
modifications: N-terminus assumed
SMILES: CC[C@H](C)[C@H](NC(=O)[C@H](Cc1ccccc1)NC(=O)[C@H](CCC(=O)O)NC(=O)[C@H](CCC(=O)O)NC(=O)[C@H](CCC(N)=O)NC(=O)[C@H](Cc1c[nH]cn1)NC(=O)[C@@H](NC(=O)[C@H](CCCNC(=N)N)NC(=O)[C@H](CC(=O)O)NC(=O)[C@H](CCCCNC(=O)COCCOCCNC(=O)COCCOCCNC(=O)COCCOCCNC(=O)CC[C@H](NC(=O)CCCCCCCCCCCCCCCCC(=O)O)C(=O)O)NC(=O)C(C)(C)NC(=O)[C@@H](NC(=O)[C@H](CO)NC(=O)[C@H](CC(C)C)NC(=O)[C@H](CC(=O)O)NC(=O)[C@H](CO)NC(=O)[C@@H](NC(=O)[C@H](Cc1ccccc1)NC(=O)[C@@H](NC(=O)CNC(=O)[C@H](CCC(=O)O)NC(=O)C(C)(C)NC(=O)[C@@H](N)Cc1ccc(O)cc1)[C@@H](C)O)[C@@H](C)CC)[C@@H](C)CC)[C@@H](C)CC)C(=O)N[C@@H](CCC(=O)O)C(=O)N[C@@H](Cc1c[nH]c2ccccc12)C(=O)N[C@@H](CC(C)C)C(=O)N[C@@H](CC(C)C)C(=O)N[C@@H](C)C(=O)N[C@@H](CCC(N)=O)C(=O)NCC(=O)N1CCC[C@H]1C(=O)N[C@@H](CO)C(=O)N[C@@H](CO)C(=O)NCC(=O)N[C@@H](C)C(=O)N1CCC[C@H]1C(=O)N1CCC[C@H]1C(=O)N1CCC[C@H]1C(=O)N[C@@H](CO)C(N)=O
B5: SEQ ID NO: 14 (peptide)
peptide: Y[Aib]EGTFISDLSI[Aib]K([AEEA-AEEA-γGlu-γGlu-C18 diacid])DRIHQEEFIEWLLAQGPSSGAPPPS-NH2
modifications: N-terminus assumed
SMILES: CC[C@H](C)[C@H](NC(=O)[C@H](Cc1ccccc1)NC(=O)[C@H](CCC(=O)O)NC(=O)[C@H](CCC(=O)O)NC(=O)[C@H](CCC(N)=O)NC(=O)[C@H](Cc1c[nH]cn1)NC(=O)[C@@H](NC(=O)[C@H](CCCNC(=N)N)NC(=O)[C@H](CC(=O)O)NC(=O)[C@H](CCCCNC(=O)COCCOCCNC(=O)COCCOCCNC(=O)CC[C@H](NC(=O)CC[C@H](NC(=O)CCCCCCCCCCCCCCCCC(=O)O)C(=O)O)C(=O)O)NC(=O)C(C)(C)NC(=O)[C@@H](NC(=O)[C@H](CO)NC(=O)[C@H](CC(C)C)NC(=O)[C@H](CC(=O)O)NC(=O)[C@H](CO)NC(=O)[C@@H](NC(=O)[C@H](Cc1ccccc1)NC(=O)[C@@H](NC(=O)CNC(=O)[C@H](CCC(=O)O)NC(=O)C(C)(C)NC(=O)[C@@H](N)Cc1ccc(O)cc1)[C@@H](C)O)[C@@H](C)CC)[C@@H](C)CC)[C@@H](C)CC)C(=O)N[C@@H](CCC(=O)O)C(=O)N[C@@H](Cc1c[nH]c2ccccc12)C(=O)N[C@@H](CC(C)C)C(=O)N[C@@H](CC(C)C)C(=O)N[C@@H](C)C(=O)N[C@@H](CCC(N)=O)C(=O)NCC(=O)N1CCC[C@H]1C(=O)N[C@@H](CO)C(=O)N[C@@H](CO)C(=O)NCC(=O)N[C@@H](C)C(=O)N1CCC[C@H]1C(=O)N1CCC[C@H]1C(=O)N1CCC[C@H]1C(=O)N[C@@H](CO)C(N)=O

Columns and labels:
[1] = target: human GLP-1 receptor (human, UniProt P43220 24-463); assay: cell-based or functional assay
[2] = target: T1, human GIP receptor; assay: cell-based or functional assay

Row | Binder | EC50 hGLP-1R 0% HSA, cAMP in HEK-293 cells [1] | EC50 hGIPR 0% HSA, cAMP in HEK-293 cells [2] | EC50 hGIPR 0.1% HSA, cAMP in HEK-293 cells [2]
1 | B1 | > 10 nM | 0.34 pM | 7.65 pM
2 | B2 | > 10 nM | 0.19 pM | 2.55 pM
3 | B3 | > 10 nM | 0.2 pM | 1.76 pM
4 | B4 | > 10 nM | 0.26 pM | 2.38 pM
5 | B5 | > 10 nM | 0.23 pM | 1.56 pM
